From patent US20260098059A1 (ENDOMET BIOSCIENCES, published 2026)
Where “and” joins values, the source holds several entries; their conditions need not be identical. Equal values may be shown once. Bridges are numbered along the chain shown (N, C = ends). [ ]: non-standard residue; d: D form. The star is where a group is joined. Chg = N[C@H](C(=O)O)C1CCCCC1; Lauroyl = CCCCCCCCCCCC(=O)*; NMeA = CN[C@@H](C)C(=O)O

T1: β-catenin (UniProt P35222 134-665, limits assumed, biotinylated in the SPR and plate assays)
T1 construct: also called beta catenin; biotinylated β-catenin
T1 sequence (looked up): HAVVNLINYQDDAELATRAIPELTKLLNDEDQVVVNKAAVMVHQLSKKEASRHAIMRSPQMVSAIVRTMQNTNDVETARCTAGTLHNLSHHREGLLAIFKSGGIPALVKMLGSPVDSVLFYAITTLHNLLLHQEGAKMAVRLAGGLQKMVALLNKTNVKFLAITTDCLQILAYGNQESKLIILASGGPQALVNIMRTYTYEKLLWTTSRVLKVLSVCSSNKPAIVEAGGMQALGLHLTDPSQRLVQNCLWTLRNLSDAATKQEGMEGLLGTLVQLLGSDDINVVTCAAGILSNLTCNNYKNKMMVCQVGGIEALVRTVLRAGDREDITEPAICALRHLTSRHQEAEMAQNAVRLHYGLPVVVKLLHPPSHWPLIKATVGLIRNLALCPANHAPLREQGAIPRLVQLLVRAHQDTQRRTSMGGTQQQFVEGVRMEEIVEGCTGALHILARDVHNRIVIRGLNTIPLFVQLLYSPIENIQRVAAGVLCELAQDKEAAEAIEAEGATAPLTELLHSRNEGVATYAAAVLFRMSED


Experiments:
β-catenin [1] = target: T1, β-catenin; test: competitive FP
Outline: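 Competitive fluorescence polarization with inhibitor peptide serially diluted from 10 nM to 30 uM; polarization read at 470 nm excitation, 520 nm emission. Experiments performed three times.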

β-catenin [2] = target: T1, β-catenin; test: SPR (Biacore)
Protocol: Biotinylated protein (beta catenin) was immobilized on a high-affinity streptavidin (SA) sensor chip (GE). Peptide at increasing concentrations was flowed over in HBS EP+ buffer at room temperature according to manufacturer's instructions. The maximum binding capacity of the surface (response at saturation) was calculated using the Biacore® system (GE) instructions and binding was measured at each concentration as a data point. The binding levels were determined over a range of analyte concentrations of at least from 20% to 80% saturation of the surface. On rates, off rates, and KD were calculated using Biacore® Insight Evaluation Software software (GE).

β-catenin [3] = target: T1, β-catenin; test: cell-based or functional assay

Binder | Kd (β-catenin [1]) | Kd (β-catenin [2]) [nM] | Wnt Reporter EC50 (β-catenin [3]) | Proliferation IC50, Wnt dependent cells (β-catenin [3]) [nM]
H-GGGDDLGANDELISFKDEGEQEEKSSENSSAERDLADVKSSLVNEK-NH2 (Tcf4 residues 7-51 with an added C-terminal K, amidated) [SEQ ID NO: 266 (H2N-Tcf4(7-51)-K-CONH2)] | ≤ 400 nM | 58.2 | – | –
WPQSILDEHGQKVW (not fully specified; Lauroyl-NH-WPQSILDE*H-Chg-QK*VW-NH2) [SEQ ID NO: 469] | ≤ 400 nM | – | ≤ 7500 nM | –
H-MWFLISFWG-OH [SEQ ID NO: 17] | > 400 nM and ≤ 1000 nM | 314 | ≤ 7500 nM | –
KMSRMWLLISFWG (HELM PEPTIDE1{K.M.S.R.M.W.L.L.I.S.F.W.G}$PEPTIDE1,PEPTIDE1,1:R3-13:R2$$$V2.0; SMILES CC[C@H](C)[C@@H]1NC(=O)[C@H](CC(C)C)NC(=O)[C@H](CC(C)C)NC(=O)[C@H](Cc2c[nH]c3ccccc23)NC(=O)[C@H](CCSC)NC(=O)[C@H](CCCNC(=N)N)NC(=O)[C@H](CO)NC(=O)[C@H](CCSC)NC(=O)[C@@H](N)CCCCNC(=O)CNC(=O)[C@H](Cc2c[nH]c3ccccc23)NC(=O)[C@H](Cc2ccccc2)NC(=O)[C@H](CO)NC1=O) [SEQ ID NO: 25] | – | 112 | > 7500 nM and ≤ 15000 nM | –
KMSRMWYLISFWG (HELM PEPTIDE1{K.M.S.R.M.W.Y.L.I.S.F.W.G}$PEPTIDE1,PEPTIDE1,1:R3-13:R2$$$V2.0; SMILES CC[C@H](C)[C@@H]1NC(=O)[C@H](CC(C)C)NC(=O)[C@H](Cc2ccc(O)cc2)NC(=O)[C@H](Cc2c[nH]c3ccccc23)NC(=O)[C@H](CCSC)NC(=O)[C@H](CCCNC(=N)N)NC(=O)[C@H](CO)NC(=O)[C@H](CCSC)NC(=O)[C@@H](N)CCCCNC(=O)CNC(=O)[C@H](Cc2c[nH]c3ccccc23)NC(=O)[C@H](Cc2ccccc2)NC(=O)[C@H](CO)NC1=O) [SEQ ID NO: 27] | – | 515 | > 30000 nM | –
KMPLAISWFEHIG (HELM PEPTIDE1{K.M.P.L.[meA].I.S.W.F.E.H.I.G}$PEPTIDE1,PEPTIDE1,1:R3-13:R2$$$V2.0; SMILES CC[C@H](C)[C@@H]1NC(=O)[C@H](Cc2c[nH]cn2)NC(=O)[C@H](CCC(=O)O)NC(=O)[C@H](Cc2ccccc2)NC(=O)[C@H](Cc2c[nH]c3ccccc23)NC(=O)[C@H](CO)NC(=O)[C@H]([C@@H](C)CC)NC(=O)[C@H](C)N(C)C(=O)[C@H](CC(C)C)NC(=O)[C@@H]2CCCN2C(=O)[C@H](CCSC)NC(=O)[C@@H](N)CCCCNC(=O)CNC1=O) [SEQ ID NO: 29] | > 400 nM and ≤ 1000 nM | 1030 | > 30000 nM | –
Lauroyl-W[NMeA]QSILDEH[Chg]QKVW-NH2 (lactam 8-12; not fully specified; printed as Lauroyl-NH-W-NMeA-QSILDE*H-Chg-QK*VW-NH2) [SEQ ID NO: 467] | ≤ 400 nM | – | ≤ 7500 nM | –
MWFLISFWAG (HELM PEPTIDE1{M.W.F.L.I.S.F.W.[meA].G}$$$$V2.0; SMILES CC[C@H](C)[C@H](NC(=O)[C@H](CC(C)C)NC(=O)[C@H](Cc1ccccc1)NC(=O)[C@H](Cc1c[nH]c2ccccc12)NC(=O)[C@@H](N)CCSC)C(=O)N[C@@H](CO)C(=O)N[C@@H](Cc1ccccc1)C(=O)N[C@@H](Cc1c[nH]c2ccccc12)C(=O)N(C)[C@@H](C)C(=O)NCC(=O)O) [SEQ ID NO: 45] | > 400 nM and ≤ 1000 nM | – | ≤ 7500 nM | –
H-MWFLISFWEG-OH [SEQ ID NO: 47] | > 400 nM and ≤ 1000 nM | – | ≤ 7500 nM | –
GWWESILDEHVQRVWG (HELM PEPTIDE1{[CCCCCCCCCCCCCC(=O)[*:2]].G.W.[meW].E.S.I.L.D.E.H.V.Q.R.V.W.G}$$$$V2.0; SMILES CCCCCCCCCCCCCC(=O)NCC(=O)N[C@@H](Cc1c[nH]c2ccccc12)C(=O)N(C)[C@@H](Cc1c[nH]c2ccccc12)C(=O)N[C@@H](CCC(=O)O)C(=O)N[C@@H](CO)C(=O)N[C@H](C(=O)N[C@@H](CC(C)C)C(=O)N[C@@H](CC(=O)O)C(=O)N[C@@H](CCC(=O)O)C(=O)N[C@@H](Cc1c[nH]cn1)C(=O)N[C@H](C(=O)N[C@@H](CCC(N)=O)C(=O)N[C@@H](CCCNC(=N)N)C(=O)N[C@H](C(=O)N[C@@H](Cc1c[nH]c2ccccc12)C(=O)NCC(=O)O)C(C)C)C(C)C)[C@@H](C)CC) [SEQ ID NO: 1] | ≤ 400 nM | – | – | 18500
KMAESILDEHVQRVWG (HELM PEPTIDE1{K.M.[meA].E.S.I.L.D.E.H.V.Q.R.V.W.G}$PEPTIDE1,PEPTIDE1,1:R3-16:R2$$$V2.0; SMILES CC[C@H](C)[C@@H]1NC(=O)[C@H](CO)NC(=O)[C@H](CCC(=O)O)NC(=O)[C@H](C)N(C)C(=O)[C@H](CCSC)NC(=O)[C@@H](N)CCCCNC(=O)CNC(=O)[C@H](Cc2c[nH]c3ccccc23)NC(=O)[C@H](C(C)C)NC(=O)[C@H](CCCNC(=N)N)NC(=O)[C@H](CCC(N)=O)NC(=O)[C@H](C(C)C)NC(=O)[C@H](Cc2c[nH]cn2)NC(=O)[C@H](CCC(=O)O)NC(=O)[C@H](CC(=O)O)NC(=O)[C@H](CC(C)C)NC1=O) [SEQ ID NO: 30] | – | 123 | > 30000 nM | –
H-MIRMWFLISFWG-OH [SEQ ID NO: 15] | – | 130 | ≤ 7500 nM | –
H-MWESILDEHVQRVWG-OH [SEQ ID NO: 22] | – | 1370 | > 30000 nM | –
KMSRMWFLISLWG (HELM PEPTIDE1{K.M.S.R.M.W.F.L.I.S.L.W.G}$PEPTIDE1,PEPTIDE1,1:R3-13:R2$$$V2.0; SMILES CC[C@H](C)[C@@H]1NC(=O)[C@H](CC(C)C)NC(=O)[C@H](Cc2ccccc2)NC(=O)[C@H](Cc2c[nH]c3ccccc23)NC(=O)[C@H](CCSC)NC(=O)[C@H](CCCNC(=N)N)NC(=O)[C@H](CO)NC(=O)[C@H](CCSC)NC(=O)[C@@H](N)CCCCNC(=O)CNC(=O)[C@H](Cc2c[nH]c3ccccc23)NC(=O)[C@H](CC(C)C)NC(=O)[C@H](CO)NC1=O) [SEQ ID NO: 28] | – | 803 | > 22500 nM and ≤ 30000 nM | –
KMSRMWFLISFWRG (HELM PEPTIDE1{K.M.S.R.M.W.F.L.I.S.F.W.R.G}$PEPTIDE1,PEPTIDE1,1:R3-14:R2$$$V2.0; SMILES CC[C@H](C)[C@@H]1NC(=O)[C@H](CC(C)C)NC(=O)[C@H](Cc2ccccc2)NC(=O)[C@H](Cc2c[nH]c3ccccc23)NC(=O)[C@H](CCSC)NC(=O)[C@H](CCCNC(=N)N)NC(=O)[C@H](CO)NC(=O)[C@H](CCSC)NC(=O)[C@@H](N)CCCCNC(=O)CNC(=O)[C@H](CCCNC(=N)N)NC(=O)[C@H](Cc2c[nH]c3ccccc23)NC(=O)[C@H](Cc2ccccc2)NC(=O)[C@H](CO)NC1=O) [SEQ ID NO: 24] | ≤ 400 nM | 270 | > 30000 nM | –
H-MWESILDEHMQRVWRG-OH [SEQ ID NO: 23] | ≤ 400 nM | 1590 | > 30000 nM | –
KMWFLISFWG (HELM PEPTIDE1{K.M.W.F.L.I.S.F.W.G}$PEPTIDE1,PEPTIDE1,1:R3-10:R2$$$V2.0; SMILES CC[C@H](C)[C@@H]1NC(=O)[C@H](CC(C)C)NC(=O)[C@H](Cc2ccccc2)NC(=O)[C@H](Cc2c[nH]c3ccccc23)NC(=O)[C@H](CCSC)NC(=O)[C@@H](N)CCCCNC(=O)CNC(=O)[C@H](Cc2c[nH]c3ccccc23)NC(=O)[C@H](Cc2ccccc2)NC(=O)[C@H](CO)NC1=O) [SEQ ID NO: 26] | – | 110 | > 7500 nM and ≤ 15000 nM | –
Lauroyl-W[NMeA]QSILDEH[Chg]QKVWG-NH2 (lactam 8-12; not fully specified; printed as Lauroyl-NH-W-NMeA-QSILDE*H-Chg-QK*VWG-NH2) [SEQ ID NO: 471] | ≤ 400 nM | – | ≤ 7500 nM | –
